Results taken from US20210137977A1 (UNIVERSITY OF SOUTHERN CALIFORNIA, published 2021).

T1: BCMA (human, UniProt Q02223 1-184)
T1 construct: whole, on cells; also called human BCMA; BCMA on L363 cells
T1 sequence (looked up): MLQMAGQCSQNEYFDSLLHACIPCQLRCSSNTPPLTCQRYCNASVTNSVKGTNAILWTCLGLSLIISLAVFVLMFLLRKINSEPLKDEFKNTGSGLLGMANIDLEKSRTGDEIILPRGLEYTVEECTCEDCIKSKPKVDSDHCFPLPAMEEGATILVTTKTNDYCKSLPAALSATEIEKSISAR

T2: human MPL (Thrombopoietin Receptor) (human, UniProt P40238 26-635)
T2 construct: whole, on cells; also called MPL on HEL.92.1.7 cells
T2 sequence (looked up): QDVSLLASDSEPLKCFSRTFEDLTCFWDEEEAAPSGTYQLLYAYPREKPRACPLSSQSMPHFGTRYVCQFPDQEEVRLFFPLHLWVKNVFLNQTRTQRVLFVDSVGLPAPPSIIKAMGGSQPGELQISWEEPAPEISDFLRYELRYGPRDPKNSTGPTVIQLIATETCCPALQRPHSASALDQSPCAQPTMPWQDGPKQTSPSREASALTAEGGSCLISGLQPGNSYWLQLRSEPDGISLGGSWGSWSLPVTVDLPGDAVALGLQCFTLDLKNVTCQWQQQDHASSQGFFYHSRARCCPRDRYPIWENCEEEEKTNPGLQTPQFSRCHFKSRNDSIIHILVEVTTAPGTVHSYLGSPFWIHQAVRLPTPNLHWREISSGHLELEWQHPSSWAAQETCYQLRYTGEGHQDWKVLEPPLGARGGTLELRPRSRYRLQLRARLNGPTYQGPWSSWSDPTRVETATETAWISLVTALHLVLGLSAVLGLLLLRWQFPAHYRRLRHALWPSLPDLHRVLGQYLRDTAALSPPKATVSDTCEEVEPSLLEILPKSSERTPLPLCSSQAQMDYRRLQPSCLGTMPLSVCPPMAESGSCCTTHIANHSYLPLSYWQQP

B1: CD8SP-BCMA-huC13-F12-BBz (other)
chain: DIVLTQSPATLSLSPGDRATLSCRASESVTILGSHLIYWYQQKPGQAPRLLIQLASNVQTGIPARFSGSGSRTDFTLTISSLEPEDFAVYYCLQSRTIPRTFGQGTKLEIKRGGGGSGGGGSGGGGSQVQLVQSGSELKKPGESVKISCKASGYTFTHYSMNWVRQAPGQGLEWMGRINTETGEPLYADDFKGRFVFSLDTSASTAYLQISSLKAEDTAVYYCSNDYLYSLDYWGQGTLVTVSSTRAKPTTTPAPRPPTPAPTIASQPLSLRPEACRPAAGGAVHTRGLDFACDIYIWAPLAGTCGVLLLSLVITLYCKRGRKKLLYIFKQPFMRPVQTTQEEDGCSCRFPEEEEGGCELRVKFSRSADAPAYQQGQNQLYNELNLGRREEYDVLDKRRGRDPEMGGKPRRKNPQEGLYNELQKDKMAEAYSEIGMKGERRRGKGHDGLYQGLSTATKDTYDALHMQALPPR
notes: Second generation CAR (41BB, CD3z)
B2: CD8SP-MPL-hu-161-2-BBz (other)
chain: DVVMTQSPSSLSASVGDRVTITCMASEDIYIRLAWYQQKPGNAPKLLIYAATSLETGVPSRFSGSGSGTDFTLTISSLQPEDFATYYCQQYWSSPWTFGGGTKVEIKGGGGSGGGGSGGGGSQVQLQESGPGLVKPSQTLSLTCTVSGYSITSDYTWNWIRQPPGNGLEWIGYITYSGSTSYNPSLKSRVLISVDTSKNQVSLKLSSVTAADTAVYYCARLGRRYTMDYWGQGTTVTVSSTRAKPTTTPAPRPPTPAPTIASQPLSLRPEACRPAAGGAVHTRGLDFACDIYIWAPLAGTCGVLLLSLVITLYCKRGRKKLLYIFKQPFMRPVQTTQEEDGCSCRFPEEEEGGCELRVKFSRSADAPAYQQGQNQLYNELNLGRREEYDVLDKRRGRDPEMGGKPRRKNPQEGLYNELQKDKMAEAYSEIGMKGERRRGKGHDGLYQGLSTATKDTYDALHMQALPPR
notes: Second generation CAR from a humanized MPL antibody (41BB, CD3z); Entry includes the CD8 signal peptide

How the values were obtained:
BCMA = target: T1, BCMA; assay: CAR stably expressed in BCMA-bearing L363 and U266 cell lines; detection reagent not named
[1] = target: T2, human MPL (Thrombopoietin Receptor); assay: CAR expressed in MPL-bearing HEL.92.1.7 cells; staining with MPL antibody (1.6.1) or 161-scFv-Nluc

Row | Binder | binding result (BCMA) | binding result [1]
1 | B1 | binds | –
2 | B2 | – | binds
